# In publication PMC9401124:
# Target: EsxT (M. abscessus), co-expressed with EsxU in M. smegmatis (Mycobacterium abscessus ATCC 19977)
# Assay: SEC-MALS; purified EsxU/EsxT complex injected at 10 mg/mL on S200 5/150, 0.8 mL/min, 20 mM Tris pH 8.0, 300 mM NaCl, 5% glycerol
substance,measurement,value
"EsxU (M. abscessus), co-expressed with EsxT in M. smegmatis (natural protein)",stoichiometry N,1
